Measurements: paper doi:10.1101/2025.09.30.679481

Biological target: Bicaudal-D (D. melanogaster (endogenous in embryos)) (UniProt P16568)
Assay: co-IP

Sequence of UniProt P16568 (P16568 whole entry): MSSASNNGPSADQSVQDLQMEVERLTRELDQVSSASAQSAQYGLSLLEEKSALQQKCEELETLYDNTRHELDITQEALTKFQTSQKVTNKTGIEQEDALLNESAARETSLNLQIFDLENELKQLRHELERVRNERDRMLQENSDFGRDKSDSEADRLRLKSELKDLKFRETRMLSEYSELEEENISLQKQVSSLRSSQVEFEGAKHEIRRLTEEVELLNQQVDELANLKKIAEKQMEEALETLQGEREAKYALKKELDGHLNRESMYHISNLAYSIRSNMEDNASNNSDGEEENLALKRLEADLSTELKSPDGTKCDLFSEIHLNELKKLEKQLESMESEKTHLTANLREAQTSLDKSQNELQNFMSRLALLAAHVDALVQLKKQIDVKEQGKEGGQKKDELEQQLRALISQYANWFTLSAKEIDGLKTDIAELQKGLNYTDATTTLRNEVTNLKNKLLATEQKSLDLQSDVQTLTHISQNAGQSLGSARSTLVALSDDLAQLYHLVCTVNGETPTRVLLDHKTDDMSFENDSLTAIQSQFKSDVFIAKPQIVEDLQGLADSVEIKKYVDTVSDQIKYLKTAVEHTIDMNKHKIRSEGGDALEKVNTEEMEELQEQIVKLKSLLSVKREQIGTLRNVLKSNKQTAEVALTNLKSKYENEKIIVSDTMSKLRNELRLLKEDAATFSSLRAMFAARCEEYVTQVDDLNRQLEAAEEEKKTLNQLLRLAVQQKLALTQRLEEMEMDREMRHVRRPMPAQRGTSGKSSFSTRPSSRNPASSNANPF

reduction of the co-precipitate by RNase: 84%
Substance: Imp (natural protein)
